B1: Human Claudin-7 (Cldn7), wild type, His-tagged [human] / itself (parent)
chain: MANSGLQLLGFSMALLGWVGLVACTAIPQWQMSSYAGDNIITAQAMYKGLWMDCVTQSTGMMSCKMYDSVLALSAALQATRALMVVSLVLGFLAMFVATMGMKCTRCGGDDKVKKARIAMGGGIIFIVAGLAALVACSWYGHQIVTDFYNPLIPTNIKYEFGPAIFIGWAGSALVILGGALLSCSCPGNESKAGYRVPRSYPKSNSSKEYV

Variants of: B1
Test: solubilization/centrifugation assay with SDS-PAGE densitometry
Conditions: p-buffer, n = 9, read off a plot

| screen value (0 mM NaCl) | screen value (300 mM NaCl) | Variant |
| --- | --- | --- |
| 0.39 a.u. | 0.8 a.u. | MANSGLQLLGFSMALLGWVGLVACTAIPQWQMSSYAGDNIITAQAMYKGLWMDCVTQSTGMMSCKMYDSALALSAALQATRALMVVSLVLGFLAMFVATMGMKCTRCGGDDKVKKARIAMGGGIIFIVAGLAALVACSWYGHQIVTDFYNPLIPTNIKYEFGPAIFIGWAGSALVILGGALLSCSCPGNESKAGYRVPRSYPKSNSSKEYV [chain 1 V70A] |
| 0.87 a.u. | 0.86 a.u. | MANSGLQLLGFSMALLGWVGLVACTAIPQWQMSSYAGDNIITAQAMYKGLWMDCVTQSTGMMSCKMYDSALALSAALQATAALMVVSLVLGFLAMFVATMGMKCTRCGGDDKVKKARIAMGGGIIFIVAGLAALVACSWYGHQIVTDAANPLIPTNIKYAAGPAIFIGWAGSALVILGGALLSCSCPGNESKAGYRVPRSYPKSNSSKEYV [chain 1 V70A R81A F148A Y149A E160A F161A] |
| 0.67 a.u. | 0.96 a.u. | MANSGLQLLGFSMALLGWVGLVACTAIPQWQMSSYAGDNIITAQAMYKGLWMDCVTQSTGMMSCKMYDSVLALSAALQATRALMVVSLVLGFLAMFVATMGMKCTRCGGDDKVKKARIAMGGGIIFIVAGLAALVACSWYGHQIVTDFANPLIPTNIKYEFGPAIFIGWAGSALVILGGALLSCSCPGNESKAGYRVPRSYPKSNSSKEYV [chain 1 Y149A] |
| 0.7 a.u. | 0.91 a.u. | MANSGLQLLGFSMALLGWVGLVACTAIPQWQMSSYAGDNIITAQAMYKGLWMDCVTQSTGMMSCKMYDSVLALSAALQATAALMVVSLVLGFLAMFVATMGMKCTRCGGDDKVKKARIAMGGGIIFIVAGLAALVACSWYGHQIVTDFYNPLIPTNIKYEFGPAIFIGWAGSALVILGGALLSCSCPGNESKAGYRVPRSYPKSNSSKEYV [chain 1 R81A] |
| 0.7 a.u. | 0.82 a.u. | MANSGLQLLGFSMALLGWVGLVACTAIPQWQMSSYAGDNIITAQAMYKGLWMDCVTQSTGMMSCKMYDSVLALSAALQATAALMVVSLVLGFLAMFVATMGMKCTRCGGDDKVKKARIAMGGGIIFIVAGLAALVACSWYGHQIVTDFANPLIPTNIKYEFGPAIFIGWAGSALVILGGALLSCSCPGNESKAGYRVPRSYPKSNSSKEYV [chain 1 R81A Y149A] |

Further lines, the variant ahead of its results:

| Variant | screen value (0 mM NaCl) | screen value (300 mM NaCl) |
| --- | --- | --- |
| MANSGLQLLGFSMALLGWVGLVACTAIPQWQMSSYAGDNIITAQAMYKGLWMDCVTQSTGMMSCKMYDSVLALSAALQATRALMVVSLVLGFLAMFVATMGMKCTRCGGDDKVKKARIAMGGGIIFIVAGLAALVACSWYGHQIVTDFYNPLIPTNIKYAFGPAIFIGWAGSALVILGGALLSCSCPGNESKAGYRVPRSYPKSNSSKEYV [chain 1 E160A] | 0.38 a.u. | 0.87 a.u. |
| MANSGLQLLGFSMALLGWVGLVACTAIPQWQMSSYAGDNIITAQAMYKGLWMDCVTQSTGMMSCKMYDSVLALSAALQATRALMVVSLVLGFLAMFVATMGMKCTRCGGDDKVKKARIAMGGGIIFIVAGLAALVACSWYGHQIVTDFYNPLIPTNIKYEAGPAIFIGWAGSALVILGGALLSCSCPGNESKAGYRVPRSYPKSNSSKEYV [chain 1 F161A] | 0.39 a.u. | 0.85 a.u. |
| MANSGLQLLGFSMALLGWVGLVACTAIPQWQMSSYAGDNIITAQAMYKGLWMDCVTQSTGMMSCKMYDSVLALSAALQATRALMVVSLVLGFLAMFVATMGMKCTRCGGDDKVKKARIAMGGGIIFIVAGLAALVACSWYGHQIVTDAYNPLIPTNIKYEFGPAIFIGWAGSALVILGGALLSCSCPGNESKAGYRVPRSYPKSNSSKEYV [chain 1 F148A] | 0.38 a.u. | 0.87 a.u. |
